Source: patent publication US20100261660A1

Biological target: hB7-1-FLAG (human) (UniProt P33681)
Experiment: flow cytometry, seven transient transfections of 293 cells, mean±SEM; used by the filing as a measure of expression

Chain of hB7-1-FLAG (human) (P33681 other isoform, or with tags, fused parts or gaps): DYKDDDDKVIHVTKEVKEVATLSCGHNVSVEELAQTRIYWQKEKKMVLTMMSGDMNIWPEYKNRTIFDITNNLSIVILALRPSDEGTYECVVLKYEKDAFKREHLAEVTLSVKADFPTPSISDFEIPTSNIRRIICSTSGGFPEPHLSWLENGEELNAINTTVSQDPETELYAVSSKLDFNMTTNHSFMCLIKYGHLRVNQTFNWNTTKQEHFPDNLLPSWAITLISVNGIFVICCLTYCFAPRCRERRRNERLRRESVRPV

mean fluorescence intensity (MFI): 55
Substance: FLAG-specific mAb M2 (antibody)
